Laboratory results as given in publication PMC11417369, “DNA sequence and chromatin differentiate sequence-specific transcription factor binding in the human malaria parasite Plasmodium falciparum”.
Numbering of substitutions follows the chain as printed.

T1: PF3D7_0420300 D1 (Plasmodium falciparum, UniProt Q8I1N6 1956-2015)
T1 sequence: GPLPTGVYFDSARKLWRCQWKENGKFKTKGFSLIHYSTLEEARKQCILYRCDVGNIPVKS

B1: CACACA_site6496 (dsDNA)
DNA 1: TATTAAACTTGACACACACACACACGCATATATAAA
DNA 2: TTTATATATGCGTGTGTGTGTGTGTCAAGTTTAATA
B2: CACACA_site2752 (dsDNA)
DNA 1: CAAACATATTAATGTACACACACCCACCCACAAACA
DNA 2: TGTTTGTGGGTGGGTGTGTGTACATTAATATGTTTG
B3: CACACA_site466 (dsDNA)
DNA 1: CAAAAAAAATAAAACACACACACAAAAAAATAAAAA
DNA 2: TTTTTATTTTTTTGTGTGTGTGTTTTATTTTTTTTG
B4: CACACA_negctrl_site1462 (dsDNA)
DNA 1: ATTTCTTTTTTTTTTTTTTTTAATGTAAAACATTTT
DNA 2: AAAATGTTTTACATTAAAAAAAAAAAAAAAAGAAAT
B5: CACACA_site8011 (dsDNA)
DNA 1: AGCACCCACCAACACACACACACACCCACCCACCCA
DNA 2: TGGGTGGGTGGGTGTGTGTGTGTGTTGGTGGGTGCT
B6: CACACA_site492 (dsDNA)
DNA 1: TAAACATACATATACACACACACACCCACACCCACA
DNA 2: TGTGGGTGTGGGTGTGTGTGTGTATATGTATGTTTA
B7: CACACA_site366 (dsDNA)
DNA 1: CACACCCACCAACACACACACACACCCACCCATATA
DNA 2: TATATGGGTGGGTGTGTGTGTGTGTTGGTGGGTGTG
B8: CACACA_negctrl_site54 (dsDNA)
DNA 1: AATAAAAAAAAAATATATATTTTTTTTTTTTTTTTT
DNA 2: AAAAAAAAAAAAAAAAATATATATTTTTTTTTTATT
B9: CACACA_negctrl_site1797 (dsDNA)
DNA 1: AGATTATATATATGTATATATGTATATATTTATATA
DNA 2: TATATAAATATATACATATATACATATATATAATCT
B10: CACACA_site638 (dsDNA)
DNA 1: AATACACGCAAACACACACACACACCCACATATATA
DNA 2: TATATATGTGGGTGTGTGTGTGTGTTTGCGTGTATT
B11: CACACA_site7104 (dsDNA)
DNA 1: B10 DNA 1 with T3C, A6G, A11G, C26G
DNA 2: B10 DNA 2 with G11C, T26C, T31C, A34G
B12: CACACA_negctrl_site1642 (dsDNA)
DNA 1: TGTTGCAAAACAAAAAAAAAAAAAAAAAATAATAAT
DNA 2: ATTATTATTTTTTTTTTTTTTTTTTGTTTTGCAACA
B13: CACACA_negctrl_site608 (dsDNA)
DNA 1: GTATATATATATATATATATAATAGTAACTTTTACT
DNA 2: AGTAAAAGTTACTATTATATATATATATATATATAC
B14: CACACA_negctrl_site1016 (dsDNA)
DNA 1: TATATTCCACTCATTGATTTTCTCTTCTCACAAAAA
DNA 2: TTTTTGTGAGAAGAGAAAATCAATGAGTGGAATATA
B15: CACACA_site518 (dsDNA)
DNA 1: ATAATTAACAAATACACACACACACCCCCACAAAAA
DNA 2: TTTTTGTGGGGGTGTGTGTGTGTATTTGTTAATTAT
B16: CACACA_site2917 (dsDNA)
DNA 1: ACCATACATACATACACACACACACCCATATATATA
DNA 2: TATATATATGGGTGTGTGTGTGTATGTATGTATGGT
B17: CACACA_negctrl_site83 (dsDNA)
DNA 1: GTGTGGTTACAGACACGAACACATTTTTTAAATATT
DNA 2: AATATTTAAAAAATGTGTTCGTGTCTGTAACCACAC
B18: CACACA_site8069 (dsDNA)
DNA 1: ACATAATTAACAAATACACACACACCCACCCACAAA
DNA 2: TTTGTGGGTGGGTGTGTGTGTATTTGTTAATTATGT
B19: CACACA_site9187 (dsDNA)
DNA 1: AAAAAAAAAATACATACACACACACCCACCCATATA
DNA 2: TATATGGGTGGGTGTGTGTGTATGTATTTTTTTTTT
B20: CACACA_site5271 (dsDNA)
DNA 1: TATAAATACAGATACACACACACACCGATATATATA
DNA 2: TATATATATCGGTGTGTGTGTGTATCTGTATTTATA
B21: CACACA_site6306 (dsDNA)
DNA 1: AGCACACGCAGACACACACACACACGCACACGCACA
DNA 2: TGTGCGTGTGCGTGTGTGTGTGTGTCTGCGTGTGCT
B22: CACACA_site6309 (dsDNA)
DNA 1: B21 DNA 1 with G2C, C3A, A4T, C7A
DNA 2: B21 DNA 2 with G30T, T33A, G34T, C35G
B23: CACACA_site8742 (dsDNA)
DNA 1: TTATGTTCTTTAAAACCACACACCCCCCAACCCCCC
DNA 2: GGGGGGTTGGGGGGTGTGTGGTTTTAAAGAACATAA
B24: CACACA_negctrl_site942 (dsDNA)
DNA 1: ATATTATGAAGGGATATTTTCAAAAATATTAGGAGA
DNA 2: TCTCCTAATATTTTTGAAAATATCCCTTCATAATAT
B25: CACACA_site7867 (dsDNA)
DNA 1: AAGGATATAACATACACACACACACGGATATAAATA
DNA 2: TATTTATATCCGTGTGTGTGTGTATGTTATATCCTT
B26: CACACA_site2625 (dsDNA)
DNA 1: AAATAAATGAAACACACACACACAAAAAAAAAAAAC
DNA 2: GTTTTTTTTTTTTGTGTGTGTGTGTTTCATTTATTT
B27: CACACA_negctrl_site461 (dsDNA)
DNA 1: AGATATAGGAAAATAATATATATATATTTTTTTTTT
DNA 2: AAAAAAAAAATATATATATATTATTTTCCTATATCT
B28: CACACA_site639 (dsDNA)
DNA 1: AAAATACACGCATACACACACACACCCACCCATATA
DNA 2: TATATGGGTGGGTGTGTGTGTGTATGCGTGTATTTT
B29: CACACA_site8059 (dsDNA)
DNA 1: CATACATATAAACACACACACACACCCACCCACAAA
DNA 2: TTTGTGGGTGGGTGTGTGTGTGTGTTTATATGTATG
B30: CACACA_site494 (dsDNA)
DNA 1: B29 DNA 1 with T9G
DNA 2: B29 DNA 2 with A28C
B31: CACACA_negctrl_site1686 (dsDNA)
DNA 1: ACAAGTGTATATGTTATATATATATATATATATATA
DNA 2: TATATATATATATATATATATAACATATACACTTGT
B32: CACACA_site6305 (dsDNA)
DNA 1: CACACGCACGAACACACACACACACGCACGCACATA
DNA 2: TATGTGCGTGCGTGTGTGTGTGTGTTCGTGCGTGTG
B33: CACACA_negctrl_site899 (dsDNA)
DNA 1: AATAAATAAATAAATATATATATATATATATATATG
DNA 2: CATATATATATATATATATATATTTATTTATTTATT
B34: CACACA_site1736 (dsDNA)
DNA 1: ATAGTATACAGACACACACACACACCCATATATATA
DNA 2: TATATATATGGGTGTGTGTGTGTGTCTGTATACTAT
B35: CACACA_site370 (dsDNA)
DNA 1: ATCAAGCACCAACACACACACACACCCCCACCCACA
DNA 2: TGTGGGTGGGGGTGTGTGTGTGTGTTGGTGCTTGAT
B36: CACACA_site7644 (dsDNA)
DNA 1: AAAAAATACAGACACACACACACACGCATATAAATA
DNA 2: TATTTATATGCGTGTGTGTGTGTGTCTGTATTTTTT
B37: CACACA_site7364 (dsDNA)
DNA 1: AAAAAAAAAAAAAACACACACACACGCATACACATA
DNA 2: TATGTGTATGCGTGTGTGTGTGTTTTTTTTTTTTTT
B38: CACACA_site6364 (dsDNA)
DNA 1: ATAATCCTTAGACACACACACACACGAATAAATAAA
DNA 2: TTTATTTATTCGTGTGTGTGTGTGTCTAAGGATTAT
B39: CACACA_site6531 (dsDNA)
DNA 1: AATAAATTTAGACACACACACACATATAAATAAATA
DNA 2: TATTTATTTATATGTGTGTGTGTGTCTAAATTTATT
B40: CACACA_site8057 (dsDNA)
DNA 1: ATTAAACATACATATACACACACACCCACCCACCCA
DNA 2: TGGGTGGGTGGGTGTGTGTGTATATGTATGTTTAAT
B41: CACACA_negctrl_site1632 (dsDNA)
DNA 1: AATTCACATGTGAACTAAAAGAATATTATATATATA
DNA 2: TATATATATAATATTCTTTTAGTTCACATGTGAATT
B42: CACACA_negctrl_site754 (dsDNA)
DNA 1: TATATTTGTACATGATATTTTTTTTTTCTTTTAAAA
DNA 2: TTTTAAAAGAAAAAAAAAATATCATGTACAAATATA
B43: CACACA_negctrl_site73 (dsDNA)
DNA 1: TTGATGTATACAATGTAGATTATTTAATATTTCAAC
DNA 2: GTTGAAATATTAAATAATCTACATTGTATACATCAA
B44: CACACA_site240 (dsDNA)
DNA 1: TTTATTTATTAATACACACACACACCCCCACAAAAT
DNA 2: ATTTTGTGGGGGTGTGTGTGTGTATTAATAAATAAA

Biological target: T1, PF3D7_0420300 D1
Test: gcPBM; about 25 ug protein; PBS, 1% milk, 0.2 mg/ml BSA, salmon testes DNA, 0.03% Triton X-100
Conditions: tags: N-terminal GST (pGEX-4T-1), kept; label: surface-attached array probe

Binder | binding signal
B1 | 10.3 ln median PBM intensity, better of two orientations
B2 | 10.4 ln median PBM intensity, better of two orientations
B3 | 10.2 ln median PBM intensity, better of two orientations
B4 | 9.11 ln median PBM intensity, better of two orientations
B5 | 10.6 ln median PBM intensity, better of two orientations
B6 | 10.4 ln median PBM intensity, better of two orientations
B7 | 10.4 ln median PBM intensity, better of two orientations
B8 | 9.09 ln median PBM intensity, better of two orientations
B9 | 9.11 ln median PBM intensity, better of two orientations
B10 | 10.5 ln median PBM intensity, better of two orientations
B11 | 10.5 ln median PBM intensity, better of two orientations
B12 | 9.09 ln median PBM intensity, better of two orientations
B13 | 9.1 ln median PBM intensity, better of two orientations
B14 | 9.1 ln median PBM intensity, better of two orientations
B15 | 10.6 ln median PBM intensity, better of two orientations
B16 | 10.4 ln median PBM intensity, better of two orientations
B17 | 9.09 ln median PBM intensity, better of two orientations
B18 | 10.5 ln median PBM intensity, better of two orientations
B19 | 10.4 ln median PBM intensity, better of two orientations
B20 | 10.2 ln median PBM intensity, better of two orientations
B21 | 10.5 ln median PBM intensity, better of two orientations
B22 | 10.4 ln median PBM intensity, better of two orientations

Binder | binding signal
B23 | 10.4 ln median PBM intensity, better of two orientations
B24 | 9.11 ln median PBM intensity, better of two orientations
B25 | 10.4 ln median PBM intensity, better of two orientations
B26 | 10.5 ln median PBM intensity, better of two orientations
B27 | 9.11 ln median PBM intensity, better of two orientations
B28 | 10.5 ln median PBM intensity, better of two orientations
B29 | 10.5 ln median PBM intensity, better of two orientations
B30 | 10.4 ln median PBM intensity, better of two orientations
B31 | 9.1 ln median PBM intensity, better of two orientations
B32 | 10.4 ln median PBM intensity, better of two orientations
B33 | 9.11 ln median PBM intensity, better of two orientations
B34 | 10.4 ln median PBM intensity, better of two orientations
B35 | 10.8 ln median PBM intensity, better of two orientations
B36 | 10.2 ln median PBM intensity, better of two orientations
B37 | 10.2 ln median PBM intensity, better of two orientations
B38 | 10.3 ln median PBM intensity, better of two orientations
B39 | 10.2 ln median PBM intensity, better of two orientations
B40 | 10.9 ln median PBM intensity, better of two orientations
B41 | 9.11 ln median PBM intensity, better of two orientations
B42 | 9.1 ln median PBM intensity, better of two orientations
B43 | 9.09 ln median PBM intensity, better of two orientations
B44 | 10.5 ln median PBM intensity, better of two orientations
